# Square brackets hold non-standard residues; d marks the D form. Primed or numbered codes have the meaning given here. Side chains are listed from the residue outwards. Ends that are not written are not given here. * marks the point of attachment. Biotin = O=C1N[C@H]2[C@H](CS[C@H]2CCCCC(=O)*)N1; PEG2(3) = PEG2 spacer carrying biotin on Lys; 1Nal = N[C@@H](Cc1cccc2ccccc12)C(=O)O; Tle = CC(C)(C)[C@H](N)C(=O)O; Nle = CCCC[C@H](N)C(=O)O; PEG2′ = PEG2 spacer unit; Aib = CC(C)(N)C(=O)O
# Target: human Factor IXa (human, UniProt P00740 47-191; P00740 227-461)
# Test: cell-based or functional assay
"EC50 [µM], FXa generation assay [µM]","EC50 [µM], FXa generation assay with hFIXa [µM]",Binder
> 1,,RRAPGKLQCLASYCWLFWTKIA
< 0.5,,RRAPGKLQCLASYCWLFWTG[Tle]A (not fully specified; printed as RRAPGKLQCLASYCWLFWTG-Tle-A; cysteine pairing not given here) [RRAPGKLQCLASYCWLFWTG-Tle-A]
> 10,,[dR]RAAGKATCLASACWLAATGIA (not fully specified (C-terminus); printed as rRAAGKATCLASACW LAATGIA; cysteine pairing not given here) [rRAAGKATCLASACW LAATGIA]
> 1,,RRKPGKLQCLASYCWLFWTGIA
> 1,,RRAPGKLQCLASYCWLFWTGIK
> 1,,RRAPGKLQCLASYCWLFWT
< 0.5,,APGKLQCLASYCWLFWTGIA
> 1,,RKAPGKLQCLASYCWLFWTGIA
< 0.5,,RAPGKLQCLASYCWLFWTGIA
,< 0.5,RRAPK([PEG2(3)-Biotin])KLTCLASYCWLFWTGIA-NH2 (cysteine pairing not given here) [compound 20]
> 10,,[dR]RAAGKLTCLASYCWLAATGIA (not fully specified (C-terminus); printed as rRAAGKLTCLASYCWLAATGIA; cysteine pairing not given here) [rRAAGKLTCLASYCWLAATGIA]
< 0.5,,RRAPGKLQCLASYCWLFWTGLA
> 1,,RRAPGKLQCLASYCWLFWTG
> 1,,[dR]RAAGKLTCLASACWLFATGIA (not fully specified (C-terminus); printed as rRAAGKLTCLASACWLFATGIA; cysteine pairing not given here) [rRAAGKLTCLASACWLFATGIA]
< 0.5,,RRAPGKLQCLASYCWLFWTGFA
> 1,,RRAPGKLQCLASYCWLFW
< 0.5,,GKLQCLASYCWLFWTGIA

"EC50 [µM], FXa generation assay [µM]","EC50 [µM], FXa generation assay with hFIXa [µM]",Binder
,< 0.5,RRAPGKLTCLAK([PEG2′-Biotin])YCWLFWTGIA-NH2 (cysteine pairing not given here) [compound 18]
< 0.5,,[dR]RAPGKSTCLASYCWLFWTGIA (not fully specified (C-terminus); printed as rRAPGKSTCLASYCWLFWTGIA; cysteine pairing not given here) [rRAPGKSTCLASYCWLFWTGIA]
> 1,,RRAKGKLQCLASYCWLFWTGIA
< 0.5,,PGKLQCLASYCWLFWTGIA
> 1,,RRAPGKLQCLASYCWLFWT[Aib]IA (not fully specified; printed as RRAPGKLQCLASYCWLFWT-Aib-IA; cysteine pairing not given here) [RRAPGKLQCLASYCWLFWT-Aib-IA]
> 5,,RRAPGKLQCLASYCWLFWKGIA
> 1,,RRAPKKLQCLASYCWLFWTGIA
< 0.5,,[dR]RASGKLTCLASYCWLFWTGIA (not fully specified (C-terminus); printed as rRASGKLTCLASYCWLFWTGIA; cysteine pairing not given here) [rRASGKLTCLASYCWLFWTGIA]
< 0.5,,[dR]RAPGKLTCLASYCWLFSTGIA (not fully specified (C-terminus); printed as rRAPGKLTCLASYCWLFSTGIA; cysteine pairing not given here) [rRAPGKLTCLASYCWLFSTGIA]
> 10,,RRAPGKLQCLASYCWLFKTGIA
> 5,,RRAPGKLQCLASYCWLF
> 5,,[dR]RAPGKLTCLASYCWLSWTGIA (not fully specified; printed as rRAPGKLTCLASYCWLSWTGIA; cysteine pairing not given here) [rRAPGKLTCLASYCWLSWTGIA]
,< 0.5,R[dR]APGKLTCLASYCWLFWTGIA-NH2 (cysteine pairing not given here) [compound 6]
< 0.5,,KRAPGKLQCLASYCWLFWTGIA
> 5,,RRAPGKLQCLASYCWLFWTGKA
< 0.5,,RRAPGKLQCLASYCWLFWTG[Nle]A (not fully specified; printed as RRAPGKLQCLASYCWLFWTG-Nle-A; cysteine pairing not given here) [RRAPGKLQCLASYCWLFWTG-Nle-A]
< 0.5,,RRAPGKLQCLASYCWLFWTG[1Nal]A (not fully specified; printed as RRAPGKLQCLASYCWLFWTG-(1-Nal)-A; cysteine pairing not given here) [RRAPGKLQCLASYCWLFWTG-(1-Nal)-A]

# Reference: patent US20140303084A1 (Biogen, published 2014)
